From the nanobody polyreactivity screen of Harvey et al. (2022)

Assay: yeast display, Sf9 membrane polyspecificity reagent, FACS + sequencing; frameworks hold sequencing errors
Summary of the method: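 Synthetic nanobody libraries on Saccharomyces cerevisiae BJ5465 were galactose-induced for 36–48 hours, stained 1 hour at 4 °C with 10% biotinylated, detergent-solubilized Sf9 membrane reagent and enriched on streptavidin microbeads. FACS then separated cells into low and high (top ~1%) gates by anti-HA (expression) and streptavidin (reagent binding) fluorescence. Genes were colony-PCR amplified, MiSeq 2 × 250 sequenced and CDR-length filtered. A clone's polyreactivity label is that of its gate of origin.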

| Sequence | polyreactivity (PSR sort gate) |
| --- | --- |
| QVQLVESGGGLVQAGGSLRLSCAASGSIFPHNAMGWYRQAPGKERELVAAISVSRGSTYYADSVKGRFTISRDNAKNTVYLQMNSLKPEDTAVYYCAAYAYGGRINGYRTYRYNYWGQGTQVTVSS | high polyreactivity |
| QVQLVESGGGLVQAGGSLRLSCAASGSIFPHYAMGWYRQAPGKEREFVATISGSTGRTYYADSVKGRFTISRDNAKNTVYLQMNSLKPEDTAVYYCATSVGYYLPPIKYDYWGQGTQVTVSS | low polyreactivity |
| QVQLVESGGGLVQAGGSLRLSCAASGSIFPIYAMGWYRQAPGKERELVAAISGSGARTYYADSVKGRFTISRDNAKNTVYLQMNSLKPEDTAVYYCNAKYGYDSEARIVKPVRYDYWGQGTQVTVSS | high polyreactivity |
| QVQLVESGGGLVQAGGSLRLSCAASGSIFPIYAMGWYRQAPGKERELVAGIRGRGGRTYYADSVKGRFTISRDNAKNTVYLQMNSLKPEDTAVYYCAKANLTPQGRGDYDYWGQGTQVTVSS | high polyreactivity |
| QVQLVESGGGLVQAGGSLRLSCAASGSIFPLYAMGWYRQAPGKERELDASITWSAGNTHYADSVKGRFTISRDNAKNTVYLQMNSLKPEDTAVYYCAADDLWLYYVDDLPINDFDYWGQGTQVTVSS | low polyreactivity |
| QVQLVESGGGLVQAGGSLRLSCAASGSIFPNNAMGWYRQAPGKERELVAAISSSARTYYADSVKGRFTISRDNAKNTVYLQMNSLKPEDTAVYYCAARWYGRFLMGYWGQGTQVTVSS | high polyreactivity |
| QVQLVESGGGLVQAGGSLRLSCAASGSIFPNYAMGWYRQAPGKERELVAAISSSGGRTYYADSVKGRFTISRDNAKNTVYLQMNCLKPEDTAVYYCAADTYTSAQHEKYDYWGQGTQVTVSS | low polyreactivity |
| QVQLVESGGGLVQAGGSLRLSCAASGSIFPPNAMGWSRQAPGKERELVAAISFSGGTSTYYADSVKGRFTISRDNAKNTVYLQMNSLKPEDTAVYYCAARKTTRRYHYDYWGQGTQVTVSS | high polyreactivity |
| QVQLVESGGGLVQAGGSLRLSCAASGSIFPPNAMGWYRQAPGKEREFVATITGRGGRTYYADSVKGRFTISRDNAKNTVYLQMNSLKPEDTAVYYCAARYTTSSRAKIEYDYWGQGTQVTVSS | high polyreactivity |
| QVQLVESGGGLVQAGGSLRLSCAASGSIFPRNAMGWYRQAPGKERELVASINSGGSTKYADSVKGRFTISRDNAKNTLYLQMNSLKPEDTAVYYCAAVRPWWRNKPQWPRYDYCGQGTQVTVSS | low polyreactivity |
| QVQLVESGGGLVQAGGSLRLSCAASGSIFPRNVMGWYRQEPGKERQLVAVITARGGSTYYADSVKGRFTISRDNAKNTVYLQMNSLKPEDTAVYYCATPYSRRKIPPNYDYWGLGTQVTVSS | high polyreactivity |
| QVQLVESGGGLVQAGGSLRLSCAASGSIFPRYAMGWYRQAPGKERELVAAITSGGSTNYADSVKGRFTISRDNAKNTVYLQMNSLKPDDTAVYYCATVRSLKEGASYFYWGQGTQVTVSS | high polyreactivity |
| QVQLVESGGGLVQAGGSLRLSCAASGSIFPSNTMGWYRQAPGKERELVATIRWNTGSTYYADSVKGRFTISRDNAKNTVYLQMNSLKPEDTAVYYCAALYVWLWGYRFDYWGQGTQVTVSS | high polyreactivity |
| QVQLVESGGGLVQAGGSLRLSCAASGSIFPSYAMGWYRLAPGKERELVATISSDGGTNYADSVKGRFTISRDNAKNTVYLQMYSLKPEDTAVYYCATRTTYGQSGSAGPRPYNYWGQGTQVTVSS | low polyreactivity |
| QVQLVESGGGLVQAGGSLRLSCAASGSIFPSYAMGWYRQAPGKERELVAAISVSGGSTYYADSVKGRFTISRDNAKNTVYLQMNSLKPEDTAVYYCAAQHGYPRYYYWGQGTQVTVSS | high polyreactivity |
| QVQLVESGGGLVQAGGSLRLSCAASGSIFPSYAMGWYRQAPGKERELVATISGSGTRTYYADSVKGRFTISRDNAKYTFYLQMNSLKPEDTAVYYCAAETHVESGSRDFYTEDYWGQGTQVTVSS | low polyreactivity |
| QVQLVESGGGLVQAGGSLRLSCAASGSIFPSYAMGWYRQAPGKERELVAVINSGGSTYYADSVKGRFTISRDNAKNTVYFQMNSLKPEDTAVYYCAAYRRRYPRFDYWGQGTQVTVSS | high polyreactivity |
| QVQLVESGGGLVQAGGSLRLSCAASGSIFPSYAMGWYRQAPRKERELVATIGRGGTTNYADSVKGRFTISRDNAKNTVYLQMNSLKPEDTAVYSCNAERIWRYKDGYDYWGQGTQVTVSS | high polyreactivity |
| QVQLVESGGGLVQAGGSLRLSCAASGSIFPTYAMGWYRQAPGKERELVAAISWDGDITYYADSVKGRFTISRDHAKNTVYLQMNSLKPEDTAVYYCNASLFIEIYSFQYDDHFAEYGYWGQGTQVTVSS | high polyreactivity |
| QVQLVESGGGLVQAGGSLRLSCAASGSIFPTYAMGWYRQAPGKERELVAAITGSGGSTYYADSVKGRFTISRDNAKNTVYLQMNSLKPEDTAVYYCAKDVYWYGVWYDYWGQGTQLTVSS | high polyreactivity |
| QVQLVESGGGLVQAGGSLRLSCAASGSIFPVNAMGWSRQAPGKERELVATITWRGGRTYYADSVKGRFTISRDNAKNTVYLQMNSLKPEDTAVYYCAARLLYRHFGYWGQGTQVTVSS | high polyreactivity |
| QVQLVESGGGLVQAGGSLRLSCAASGSIFPVYAMGWYRQAPGKERELVAAINSSGGTTYYADSVKGRFTISRDNAKNTVYLQMNSLKPEDTAVYYCAAEISTASYFAKTYDYWGQGTQVTVSS | low polyreactivity |

| Sequence | polyreactivity (PSR sort gate) |
| --- | --- |
| QVQLVESGGGLVQAGGSLRLSCAASGSIFPVYAMGWYRQAPGKERELVAAISWGGGNTYYADSVKGRFTISRDNSKNTVYLQMNSLKPEDTAVYYCNKRSRLGRGNRDYRGQGTQVTVSS | high polyreactivity |
| QVQLVESGGGLVQAGGSLRLSCAASGSIFPWYAMGWYRPAPGKERELVADITNGSSTNYADSVKGRFTISRDNAKNTVYLQMNSLKPEDTAVYYCARDGIGADGYDYWGQGTQVTVSS | low polyreactivity |
| QVQLVESGGGLVQAGGSLRLSCAASGSIFPWYAMGWYRQEPGKERELVAAISKSGAGTYYADSVKGRFTISRDTAKNTVYLQMNSLKPEDTAVYYCNARWRSNRAARYDFWGQGTQVTVSS | high polyreactivity |
| QVQLVESGGGLVQAGGSLRLSCAASGSIFPWYTMGWYRQAPGKERELVAAITSSGGGTYYADSVKGRFTISRDNAKNTVYLQMNSLKPEDTAVYYCAAGLDWGPEYEYWGQGTQVTVSS | low polyreactivity |
| QVQLVESGGGLVQAGGSLRLSCAASGSIFPYAMGWYRQAPGKERELVAVISWSGASTYYADSVKGRFTISRDNAKNTVYLQMNSLKPEDTAVYYCAVYRYYKLVHLYGYDYWGQGTQVTVSS | high polyreactivity |
| QVQLVESGGGLVQAGGSLRLSCAASGSIFPYNAMGCYRQAPGKEMELVAVITSSGASTYYADSVKGRFTISLDNSKNTVYLQMNSLKPEDTAVYYCAARGYNYYFGGYDYWGQGTQVTVSS | low polyreactivity |
| QVQLVESGGGLVQAGGSLRLSCAASGSIFPYYALGWYRQAPGKERELVAAISWSGTSTYYADSVKGRFTISRDNAKNTVYLQMNSLKPEDTAVYYCNAGYYHFYASGYDYWGQGTQVTVSS | low polyreactivity |
| QVQLVESGGGLVQAGGSLRLSCAASGSIFPYYAMGWYRQAPGKERELVATISNSGGSTYYADSVKGRFTISRDNAKNTVYLQMNSLKPEDTAVYYCAADRGSYPYTGDYWGQGTQVNVSS | low polyreactivity |
| QVQLVESGGGLVQAGGSLRLSCAASGSIFPYYAMGWYRQAPGKERELVATITYRGGSTNYADSVKGRFTISRDNAKNTVYLQMNSLKPEDTAVYYCAAYGYVLASPYPYSFVKLGYWGQGTQVTVSS | low polyreactivity |
| QVQLVESGGGLVQAGGSLRLSCAASGSIFQAYAMGWYRQAPGKERELVASISQSGDSTYYADSVKGRFTISRDNAKNTVYLQMNSLNPVDTAVYYCAAVQYGHRRGRVSVRRRLDYWGQGTQVTVSS | low polyreactivity |
| QVQLVESGGGLVQAGGSLRLSCAASGSIFQCYTMGWSRQAPGKERELVAAISSTGSTNYADCVMGRFTISLDNAKNTVYLQMNSMNPEDTAVFYCAGVGTYLAGYQFDYWGQGTQVTVSS | low polyreactivity |
| QVQLVESGGGLVQAGGSLRLSCAASGSIFQDNTMGWYRQAPGKERELVAAISWSATSTYYADSVTGRFSISRDNAKNTVYLQMNRLKPEDTAVYDCAAGRSYRRYAYYYWGQGTQVTVSS | high polyreactivity |
| QVQLVESGGGLVQAGGSLRLSCAASGSIFQFYAMGWYRQAPGKERELVADISYGGSTYYADSVKGRFTISRDNAKKTVYLQMNSLKPEDTAVYYCAAAAYWWVKGFGSYYWGQGTQVTVSS | high polyreactivity |
| QVQLVESGGGLVQAGGSLRLSCAASGSIFQFYAMGWYRQAPGKERELVAVITTSGVSTYYADSVKGRFTISRDNAKNTVYLQMNSLKPEATAVYYCAADDYYLAGDYWGQGTQVTVSS | low polyreactivity |
| QVQLVESGGGLVQAGGSLRLSCAASGSIFQLNAKGWYRQAPGKERELVAAITWSGDSTYYADSVKGRFTISRDNAKNTVYLQMNSLKPEDTAVYYCAADVLTTPPPREFEYWGQGTQVTVSS | high polyreactivity |
| QVQLVESGGGLVQAGGSLRLSCAASGSIFQPYAMGWYRQAPGKERELVAAISSSGGSTTYADSVKGRFTISRDNAKNTVYLQMNSLKPEDTAVYYCAADSADDMGYWGQGTQVTVSS | low polyreactivity |
| QVQLVESGGGLVQAGGSLRLSCAASGSIFQPYAMGWYRQAPGKERELVAAITNGGSTYYADSVKGRFTISRDNAKNTVYLQMNSLKPEDTAVYYCAADVQSSHEYDYWGQGTQVTVSS | low polyreactivity |
| QVQLVESGGGLVQAGGSLRLSCAASGSIFQRYAMGWYRQAPGKERECVAAISGRGGSTYYADSVKGRFTISRDNAKNTVYLQMNSLKPEDTAVYYCAADSSRFYGRPRYYYWGQGTQVTVSS | high polyreactivity |
| QVQLVESGGGLVQAGGSLRLSCAASGSIFQRYTMGWYIQAPGKERELVAAISWSGDGTYYADSVKGRFTISRDNAKNTFYLQMNSLKPEDTAVYYCNDGYTRRYRFRVENDYDYWGQGTQVTVSS | high polyreactivity |
| QVQLVESGGGLVQAGGSLRLSCAASGSIFQSNAMGWSRQAPGKERELVAAISSRGGRTYYADSVKGRFTISRDNAKYTVYLQLNSLKPEDTAVYYCAVVPFTEHDYWGQGTQVTVSS | high polyreactivity |
| QVQLVESGGGLVQAGGSLRLSCAASGSIFQSYAMGWYRQAPGKERELVAGISSDGSTYYADSVKGRFTISRDNAKNTVYLQMNSLKPEDTAVYYCAAERWGNPTDYQFWRPYDYWGQGTQVTVSS | low polyreactivity |
